Laboratory results reported in publication PMC4121237, “Engineering Neprilysin Activity and Specificity to Create a Novel Therapeutic for Alzheimer’s Disease” (PLoS ONE, 2014).
Values joined by “and” are separate entries in the source; they are usually repeats but may differ in a detail not shown here. Equal values may be shown once.

Key:
Type in all cases: biochemical
ANP = experiment: Steady-state kinetics of peptide cleavage, fluorescence polarisation; settings: substrate ANP
Protocol: (§1) For detailed kinetic characterisation of peptide cleavage by NEP, a similar assay to that above was used with modifications based on a published method. Peptides were synthesised by Bachem using 9-fluorenylmethyloxycarbonyl solid-phase peptide synthesis and were labelled with a N-terminal 5(6)FAM via a ε-aminocaproic acid linker and a C-terminal biotin via a lysine linker (Table S1). Purified peptides were supplied as trifluoroacetate salts with a purity ≥95%. The assay was performed in a 96-well microtitre plate and contained 50 mM HEPES (pH 7.4), 100 mM NaCl, 0.05% (w/v) BSA (Buffer A), 1–200 µM peptide substrate and 1–500 nM NEP protein. Reactions were incubated at 37°C before being stopped at various time points between 2 and 360 min by transferring 5 µL aliquots to 245 µL Buffer A containing 2 mM 1,10-phenanethroline (Sigma) and 2 µM avidin (Invitrogen). For peptide substrates containing disulphide bonds, 1 mM tris(2-carboxyethyl)phosphine (Thermo Scientific) was added to the stop solution. The fluorescence polarisation of the resulting solution was measured on a Victor plate reader and the amount of substrate cleaved was determined with reference to substrate-only controls with and without avidin. Initial rates were obtained by linear regression of the linear regions of time courses. Enzyme velocity was plotted as a function of substrate concentration and the Michaelis-Menten equation was used to fit the data, giving the parameters kcat and KM.

Angiotensin = experiment: as above
Protocol: as §1

Arg-vasopressin = experiment: as above; settings: substrate Arg-vasopressin
Protocol: as §1

Aβ1–40 = experiment: as above; settings: for increase in kcat/KM (catalytic efficiency) on Aβ1–40 over wild-type NEP: relative to wild-type NEP
Protocol: as §1

Bradykinin = experiment: as above
Protocol: as §1

GLP-1 = experiment: as above; settings: substrate GLP-1
Protocol: as §1

GRP = experiment: as above; settings: substrate GRP
Protocol: as §1

Glucagon = experiment: as above; settings: substrate Glucagon
Protocol: as §1

Neurokinin A = experiment: as above; settings: substrate Neurokinin A
Protocol: as §1

Neurokinin B = experiment: as above; settings: substrate Neurokinin B
Protocol: as §1

Neurotensin = experiment: as above
Protocol: as §1

Nociceptin = experiment: as above; settings: substrate Nociceptin
Protocol: as §1

Somatostatin 14 = experiment: as above; settings: substrate Somatostatin 14
Protocol: as §1

Somatostatin 28 = experiment: as above; settings: substrate Somatostatin 28
Protocol: as §1

Substance P = experiment: as above; settings: substrate Substance P
Protocol: as §1

α-endorphin = experiment: as above; settings: substrate α-endorphin
Protocol: as §1

γ-endorphin = experiment: as above; settings: substrate γ-endorphin
Protocol: as §1

[1] = test system: panel of off-target peptides; experiment: Steady-state kinetics across the panel of off-target peptides
Protocol: For detailed kinetic characterisation of peptide cleavage by NEP, a similar assay to that above was used with modifications based on a published method. Peptides were synthesised by Bachem using 9-fluorenylmethyloxycarbonyl solid-phase peptide synthesis and were labelled with a N-terminal 5(6)FAM via a ε-aminocaproic acid linker and a C-terminal biotin via a lysine linker (Table S1). Purified peptides were supplied as trifluoroacetate salts with a purity ≥95%. The assay was performed in a 96-well microtitre plate and contained 50 mM HEPES (pH 7.4), 100 mM NaCl, 0.05% (w/v) BSA (Buffer A), 1–200 µM peptide substrate and 1–500 nM NEP protein. […] The fluorescence polarisation of the resulting solution was measured on a Victor plate reader and the amount of substrate cleaved was determined with reference to substrate-only controls with and without avidin. […]
Kinetic parameters for cleavage of endothelin-1 by NEP were determined using a stopped assay in which the amount of substrate cleaved was measured using reversed-phase HPLC (RP-HPLC). […] RP-HPLC spectra were recorded using an Agilent 1260 Infinity system. […] Signal intensity for intact endothelin-1 was monitored at 210 nm and relative peak area was determined by manual integration of the baseline. […]
Kinetic parameters for cleavage of a panel of peptides by wild-type NEP and NEPv were determined (Figure 3 and Table 2). […]

[2] = ratio of wild-type NEP kcat/KM to that of the mutant
[3] = substrate Angiotensin, 37°C, pH 7.4
[4] = substrate Aβ 1–40, 37°C, pH 7.4
[5] = substrate Bradykinin, 37°C, pH 7.4
[6] = substrate Neurotensin, 37°C, pH 7.4

B1: NEPv: lead variant at round 2, human NEP ectodomain with the two mutations G399V and G714K (protein, UniProt P08473 52-750, looked up, variant G399V G714K)
extracellular domain: YDDGICKSSDCIKSAARLIQNMDATTEPCTDFFKYACGGWLKRNVIPETSSRYGNFDILRDELEVVLKDVLQEPKTEDIVAVQKAKALYRSCINESAIDSRGGEPLLKLLPDIYGWPVATENWEQKYGASWTAEKAIAQLNSKYGKKVLINLFVGTDDKNSVNHVIHIDQPRLGLPSRDYYECTGIYKEACTAYVDFMISVARLIRQEERLPIDENQLALEMNKVMELEKEIANATAKPEDRNDPMLLYNKMTLAQIQNNFSLEINGKPFSWLNFTNEIMSTVNISITNEEDVVVYAPEYLTKLKPILTKYSARDLQNLMSWRFIMDLVSSLSRTYKESRNAFRKALYVTTSETATWRRCANYVNGNMENAVGRLYVEAAFAGESKHVVEDLIAQIREVFIQTLDDLTWMDAETKKRAEEKALAIKERIGYPDDIVSNDNKLNNEYLELNYKEDEYFENIIQNLKFSQSKQLKKLREKVDKDEWISGAAVVNAFYSSGRNQIVFPAGILQPPFFSAQQSNSLNYGGIGMVIGHEITHGFDDNGRNFNKDGDLVDWWTQQSASNFKEQSQCMVYQYGNFSWDLAGGQHLNGINTLGENIADNGGLGQAYRAYQNYIKKNGEEKLLPGLDLNHKQLFFLNFAQVWCGTYRPEYAVNSIKTDVHSPKNFRIIGTLQNSAEFSEAFHCRKNSYMNPEKKCRVW
modifications: extracellular domain
ANP; 37°C, pH 7.4
  Km: 33 ± 6 µM
  kcat: 0.56 ± 0.05 s⁻¹
ANP; [2]
  Fold change in kcat/KM: 53
Angiotensin; [3]
  Km: 13 ± 2 µM
  kcat: 0.14 ± 0.007 s⁻¹
Angiotensin; substrate Angiotensin, ratio of wild-type NEP kcat/KM to that of the mutant
  Fold change in kcat/KM: 87
Angiotensin; substrate angiotensin
  reduction in kcat relative to wild-type NEP: 60 fold
Arg-vasopressin; 37°C, pH 7.4
  Km: 22 ± 3 µM
  kcat: 0.017 ± 0.001 s⁻¹
Arg-vasopressin; [2]
  Fold change in kcat/KM: 510
Aβ1–40; substrate Aβ1–40
  increase in kcat relative to wild-type NEP: ~2 fold
  increase in kcat/KM (catalytic efficiency) on Aβ1–40 over wild-type NEP: 18.5 fold and 20 fold
Aβ1–40; [4]
  Km: 14 ± 1 µM
  kcat: 2.1 ± 0.1 s⁻¹
Aβ1–40; substrate Aβ 1–40, ratio of wild-type NEP kcat/KM to that of the mutant
  Fold change in kcat/KM: 0.055
Aβ1–40; substrate Aβ1–40, listed as Neprilysin variant G399V/G714K
  increase in kcat/KM (catalytic efficiency) on Aβ1–40 over wild-type NEP: approximately 20 fold
Bradykinin; Aβ1–40 versus bradykinin
  specificity switch in favor of cleavage of Aβ: 6.4×10^4
Bradykinin; [5]
  Km: 37 ± 10 µM
  kcat: 0.0055 ± 0.001 s⁻¹
GLP-1; 37°C, pH 7.4
  Km: 23 ± 4 µM
  kcat: 0.89 ± 0.07 s⁻¹
GLP-1; [2]
  Fold change in kcat/KM: 3.6
GRP
  reduction in kcat relative to wild-type NEP: 67 fold
GRP; 37°C, pH 7.4
  Km: 120 ± 20 µM
  kcat: 0.39 ± 0.05 s⁻¹
GRP; [2]
  Fold change in kcat/KM: 52
Glucagon; 37°C, pH 7.4
  Km: 30 ± 6 µM
  kcat: 1.2 ± 0.1 s⁻¹
Glucagon; [2]
  Fold change in kcat/KM: 4.2
Neurokinin A; 37°C, pH 7.4
  Km: 34 ± 7 µM
  kcat: 1.1 ± 0.1 s⁻¹
Neurokinin A; [2]
  Fold change in kcat/KM: 52
Neurokinin B; 37°C, pH 7.4
  Km: 22 ± 3 µM
  kcat: 0.42 ± 0.03 s⁻¹
Neurokinin B; [2]
  Fold change in kcat/KM: 48
Neurotensin; [6]
  Km: 16 ± 3 µM
  kcat: 0.039 ± 0.002 s⁻¹
Neurotensin; substrate Neurotensin, ratio of wild-type NEP kcat/KM to that of the mutant
  Fold change in kcat/KM: 320
Neurotensin; substrate neurotensin
  reduction in kcat relative to wild-type NEP: 340 fold
Nociceptin; 37°C, pH 7.4
  Km: 63 ± 7 µM
  kcat: 14 ± 0.9 s⁻¹
Nociceptin; [2]
  Fold change in kcat/KM: 2.6
Somatostatin 14; 37°C, pH 7.4
  Km: 32 ± 3 µM
  kcat: 9.1 ± 0.4 s⁻¹
Somatostatin 14; [2]
  Fold change in kcat/KM: 15
Somatostatin 28; 37°C, pH 7.4
  Km: 47 ± 20 µM
  kcat: 0.086 ± 0.02 s⁻¹
Somatostatin 28; [2]
  Fold change in kcat/KM: 87
Substance P; 37°C, pH 7.4
  Km: 92 ± 10 µM
  kcat: 12 ± 0.9 s⁻¹
Substance P; [2]
  Fold change in kcat/KM: 8.7
α-endorphin; 37°C, pH 7.4
  Km: 6.5 ± 1 µM
  kcat: 0.089 ± 0.003 s⁻¹
α-endorphin; [2]
  Fold change in kcat/KM: 26
γ-endorphin; 37°C, pH 7.4
  Km: 4.4 ± 0.6 µM
  kcat: 0.16 ± 0.006 s⁻¹
γ-endorphin; [2]
  Fold change in kcat/KM: 10
[1]; other (off-target) peptides, relative to wild-type
  reduction in activity on other peptides: ≤ 3,200 fold
[1]; panel of 16 peptides
  average specificity switch (ratio of the fold change in kcat/KM on Aβ1–40 to that on other peptides): 5,300 fold
